Publication doi:10.1101/2023.03.10.532002
Several values for one entry are separate records, joined by “and”; a condition that tells them apart may be missing. Equal values may be shown once.

How the values were obtained:
Conditions in all cases: remark: other sources report otherwise
[1] = target: T1, human arachidonate 12S-Lipoxygenase (12-LOX) (human), P18054; experiment: cryo-EM structure
T1 chain: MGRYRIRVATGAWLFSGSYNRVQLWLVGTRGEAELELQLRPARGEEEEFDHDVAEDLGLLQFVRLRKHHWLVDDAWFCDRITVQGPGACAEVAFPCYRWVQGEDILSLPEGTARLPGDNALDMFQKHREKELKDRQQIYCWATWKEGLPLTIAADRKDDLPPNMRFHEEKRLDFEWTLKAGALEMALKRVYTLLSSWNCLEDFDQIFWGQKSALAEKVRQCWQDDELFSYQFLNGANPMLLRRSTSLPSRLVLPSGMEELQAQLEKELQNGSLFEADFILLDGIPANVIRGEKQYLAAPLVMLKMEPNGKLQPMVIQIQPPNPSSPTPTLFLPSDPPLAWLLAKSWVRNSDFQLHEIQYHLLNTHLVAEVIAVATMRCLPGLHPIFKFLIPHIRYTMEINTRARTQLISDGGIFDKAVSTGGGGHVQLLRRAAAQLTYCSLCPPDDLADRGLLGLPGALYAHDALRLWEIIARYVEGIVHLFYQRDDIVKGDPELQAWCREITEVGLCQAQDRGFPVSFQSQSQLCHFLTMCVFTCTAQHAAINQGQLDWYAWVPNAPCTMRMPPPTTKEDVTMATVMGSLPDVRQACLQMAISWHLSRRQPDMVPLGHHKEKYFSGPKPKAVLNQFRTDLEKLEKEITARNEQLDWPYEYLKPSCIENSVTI

[2] = target: T1, human arachidonate 12S-Lipoxygenase …; experiment: SEC
[3] = target: T1, human arachidonate 12S-Lipoxygenase …; experiment: cryo-EM structure
[4] = target: T1, human arachidonate 12S-Lipoxygenase …; experiment: cryo-EM structure

B1: human arachidonate 12S-Lipoxygenase (12-LOX), P18054 1-663 (enzyme)
chain: MGRYRIRVATGAWLFSGSYNRVQLWLVGTRGEAELELQLRPARGEEEEFDHDVAEDLGLLQFVRLRKHHWLVDDAWFCDRITVQGPGACAEVAFPCYRWVQGEDILSLPEGTARLPGDNALDMFQKHREKELKDRQQIYCWATWKEGLPLTIAADRKDDLPPNMRFHEEKRLDFEWTLKAGALEMALKRVYTLLSSWNCLEDFDQIFWGQKSALAEKVRQCWQDDELFSYQFLNGANPMLLRRSTSLPSRLVLPSGMEELQAQLEKELQNGSLFEADFILLDGIPANVIRGEKQYLAAPLVMLKMEPNGKLQPMVIQIQPPNPSSPTPTLFLPSDPPLAWLLAKSWVRNSDFQLHEIQYHLLNTHLVAEVIAVATMRCLPGLHPIFKFLIPHIRYTMEINTRARTQLISDGGIFDKAVSTGGGGHVQLLRRAAAQLTYCSLCPPDDLADRGLLGLPGALYAHDALRLWEIIARYVEGIVHLFYQRDDIVKGDPELQAWCREITEVGLCQAQDRGFPVSFQSQSQLCHFLTMCVFTCTAQHAAINQGQLDWYAWVPNAPCTMRMPPPTTKEDVTMATVMGSLPDVRQACLQMAISWHLSRRQPDMVPLGHHKEKYFSGPKPKAVLNQFRTDLEKLEKEITARNEQLDWPYEYLKPSCIENSVTI
B1 was tested, and the stoichiometry N [1] was 4, the stoichiometry N [2] was 2 and 4 and the stoichiometry N [3] was 2 and 4 and 6. It also gave a stoichiometry N [4] of 4.
